Data taken from patent publication US20220185894A1 (F STAR THERAPEUTICS, published 2022).

Legend:
[1] = target: T1, mouse LAG-3 expressed on cells (mouse, UniProt Q61790 24-521); experiment: flow cytometry on HEK cells expressing mouse LAG-3
T1 construct: also called mLAG-3; murine LAG-3 HEK
T1 sequence: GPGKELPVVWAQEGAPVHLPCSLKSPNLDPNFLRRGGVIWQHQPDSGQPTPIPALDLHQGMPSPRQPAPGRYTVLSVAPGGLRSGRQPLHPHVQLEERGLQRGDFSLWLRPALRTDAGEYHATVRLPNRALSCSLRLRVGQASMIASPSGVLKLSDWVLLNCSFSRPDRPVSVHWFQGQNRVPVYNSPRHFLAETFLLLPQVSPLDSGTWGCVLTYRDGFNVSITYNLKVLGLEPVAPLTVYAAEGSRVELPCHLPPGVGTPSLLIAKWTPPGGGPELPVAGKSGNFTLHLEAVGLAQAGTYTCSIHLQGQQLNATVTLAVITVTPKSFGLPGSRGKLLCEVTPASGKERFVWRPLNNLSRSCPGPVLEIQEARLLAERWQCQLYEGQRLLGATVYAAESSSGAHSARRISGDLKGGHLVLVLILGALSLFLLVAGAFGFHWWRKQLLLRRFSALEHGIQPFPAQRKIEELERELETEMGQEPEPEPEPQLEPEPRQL
Method: HEK cells expressing mLAG-3 grown in DMEM (Life Technologies, 61965-026) containing 10% FBS (Life Technologies, 10270-1-6), 100 μg/ml Hygromycin B (Melford Laboratories Ltd, Z2475), 15 μg/ml Blasticidin (Melford Laboratories Ltd, B1105) and 1 μg/ml Doxycyclin (Sigma, D9891) were detached from tissue culture flasks using cell dissociation buffer (Life Technologies, 13151-014). Cells were collected by centrifuged at 1500 rpm for 3 min at 4° C. to pellet the cells and then resuspended in 1×DPBS then seeded in V-bottom 96-well plates (Costar, 3897) at 1.2×10⁵ cells/well in 30 μl. A 1:1 volume of a dilution series of the mAb² (or control mAb) was added and incubated with the cells for 1 h at 4° C. The plates were washed and secondary antibody (Anti-human Fc-488, Jackson ImmunoResearch, 109-546-098) was diluted 1:1000 in PBS and 60 μl was added to the cells for 30 min at 4° C. (plates were kept in the dark). The plates were then washed and the cells resuspended in 60 μl PBS containing 1 μg/ml DAPI (Biotium, 40043). The plates were read using Canto II flow cytometer (BD Bioscience). Dead cells were excluded and the fluorescence in the FITC channel (488 nm/530/30) was measured. The data was fitted using log (agonist) vs response in GraphPad Prism Software.

[2] = target: T1, mouse LAG-3 expressed on cells; experiment: flow cytometry on HEK cells expressing murine LAG-3
Method: (§1) The affinity of the mAb² (all containing the LALA mutations) binding to cell expressed murine LAG-3 or murine PD-L1 was determined using flow cytometry. HEK cells expressing murine LAG-3 or murine PD-L1 grown in DMEM (Life Technologies, 61965-026) containing 10% FBS (Life Technologies, 10270-1-6), 100 μg/ml Hygromycin B (Melford Laboratories Ltd, Z2475), 15 μg/ml Blasticidin (Melford Laboratories Ltd, B1105) and 1 μg/ml Doxycyclin (Sigma, D9891) were detached from tissue culture flasks using cell dissociation buffer (Life Technologies, 13151-014) and seeded in V-bottom 96-well plates (Costar, 3897) at 2×10⁵ cells/well. The plates were centrifuged at 1500 rpm for 3 min at 4° C. to pellet the cells. A dilution series of the mAb² (or control mAb) were incubated with the cells in a 60 μl volume for 1 h at 4° C. The plates were washed and secondary antibody (Anti-human Fc-488, Jackson ImmunoResearch, 109-546-098 for mAb² or Anti-Rat IgG (H+L), Alexa Fluor 488, ThermoFisher, A-11006 for anti-LAG-3 control, C9B7W) was diluted 1:1000 in PBS and 50 μl was added to the cells for 30 min at 4° C. (plates were kept in the dark). The plates were washed then cells were resuspended in 50 μl FACS Cell Fix (BD Bioscience, 340181) for 15 minutes, then washed and resuspended in 100 μl PBS containing 1 μg/ml DAPI (Biotium, 40043). The plates were read using Canto II flow cytometer (BD Bioscience). Dead cells were excluded and the fluorescence in the FITC channel (488 nm/530/30) was measured. The data was fit using log (agonist) vs response in GraphPad Prism Software. The plates were read on a BD FACSCanto II cytometer (BD Biosciences) and the data analysed using FlowJo.

[3] = target: T2, murine PD-L1 expressed on cells (mouse, UniProt Q9EP73 19-290); experiment: flow cytometry on HEK cells expressing murine PD-L1
T2 construct: also called murine PD-L1 HEK
Method: as §1, with “The plates were washed then cells were resuspended in 50 μl FACS Cell Fix (BD Bioscience, 340181) for 15 minutes, then washed and resuspended in 100 μl PBS containing 1 μg/ml DAPI (Biotium, 40043).” left out, “The data was fit using log (agonist) vs response in GraphPad Prism Software.” left out

[4] = target: T3, human FcγRIIb/c (R&D Systems, 1875-CD) (human, UniProt P31994 46-217); experiment: SPR, Biacore T200; FcγR immobilised, 500 µg/ml injected
T3 construct: Bought recombinant protein
T3 sequence (looked up): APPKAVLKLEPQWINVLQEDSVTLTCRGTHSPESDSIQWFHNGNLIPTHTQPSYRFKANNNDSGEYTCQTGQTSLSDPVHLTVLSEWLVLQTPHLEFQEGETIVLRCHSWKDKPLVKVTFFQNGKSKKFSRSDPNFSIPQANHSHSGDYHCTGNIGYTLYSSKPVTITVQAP
Method: (§2) The introduction of the LALA mutation in the CH2 domain of human IgG1 is known to reduce Fc γ receptor binding (Bruhns, P., et al. (2009); and Xu, D. et al. (2000)). […] The human FcγR binding assay was performed on a Biacore T200 instrument (GE Healthcare) using the Fcabs in the mock mAb² format. […] For each immobilized chip a flow cell was left blank for background subtraction. FcγR were immobilized using a concentration of 5 μg/ml in sodium acetate pH5 (ForteBio, 18-1069) and injected at a flow rate of 10 μl/min in 15 second cycles until the required immobilization level was reached.
(§3) The flow cells were regenerated by injecting 10 mM sodium hydroxide (VWR, 28244.262) at a flow rate of 100 μl/min for 30 seconds. The data analysis was performed with BiaEvaluation software version 3.2 RC1 by double referencing against the blank flow cell (without immobilized FcγR) and subtracting a buffer cycle from test mAb².

[5] = target: T4, human FcγRIIa (R&D Systems, 1330-CD) (human, UniProt P12318 36-218, limits assumed); experiment: as above
T4 construct: Bought recombinant protein
T4 sequence (looked up): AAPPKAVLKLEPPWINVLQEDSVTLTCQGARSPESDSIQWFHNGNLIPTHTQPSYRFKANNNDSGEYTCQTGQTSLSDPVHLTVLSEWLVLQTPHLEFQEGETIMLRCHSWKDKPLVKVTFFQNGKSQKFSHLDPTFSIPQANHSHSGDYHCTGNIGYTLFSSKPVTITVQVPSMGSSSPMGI
Method: as §2, §3

[6] = target: T5, human FcγRI (R&D Systems, 1257-FC) (human, UniProt P12314 16-288); experiment: SPR, Biacore T200; FcγR immobilised, 200 µg/ml injected
T5 construct: Bought recombinant protein
Method: as §2, §3

[7] = target: T6, human FcγRIIIa (R&D Systems, 4325-FC) (human, UniProt P08637 17-208); experiment: as above
T6 construct: Bought recombinant protein
Method: as §2, §3

[8] = target: T7, cynomolgus LAG-3 expressed on cells (cynomolgus monkey, UniProt P18627 24-525 (human entry)); experiment: flow cytometry on DO11.10 cells expressing cynomolgus LAG-3
T7 construct: also called cLAG-3; cyno LAG-3
T7 chain: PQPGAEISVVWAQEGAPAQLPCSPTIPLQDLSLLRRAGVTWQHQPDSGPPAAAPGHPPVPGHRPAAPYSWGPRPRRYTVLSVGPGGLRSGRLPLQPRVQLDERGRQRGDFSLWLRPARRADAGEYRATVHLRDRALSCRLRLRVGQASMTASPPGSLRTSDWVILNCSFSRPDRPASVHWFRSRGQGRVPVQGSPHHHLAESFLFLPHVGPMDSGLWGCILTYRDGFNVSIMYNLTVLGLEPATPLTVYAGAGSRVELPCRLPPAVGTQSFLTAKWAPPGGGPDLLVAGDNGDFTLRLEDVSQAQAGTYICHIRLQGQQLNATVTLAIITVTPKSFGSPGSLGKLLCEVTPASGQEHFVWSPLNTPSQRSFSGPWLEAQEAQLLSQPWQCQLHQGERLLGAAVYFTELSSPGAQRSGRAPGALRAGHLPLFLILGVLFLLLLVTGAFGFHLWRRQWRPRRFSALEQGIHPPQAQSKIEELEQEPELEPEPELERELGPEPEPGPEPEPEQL
Method: DO11.10:LAG-3 cell suspensions were prepared in PBS+2% BSA (Sigma, A7906) and seeded at […] with 50 μl/well in V-bottomed 96-well plates (Costar, 3897). […] The plates were washed and 100 μl/well of secondary antibody (anti-human Fc-488 antibody, Jackson ImmunoResearch, 109-546-098) diluted 1:1000 in PBS+2% BSA was then added and incubated for 30 mins at 4° C. in the dark. The plates were washed and resuspended in 100 μl of PBS containing DAPI (Biotium, 40043) at […]. The plates were read using Canto II flow cytometer (BD Bioscience). The dead cells were excluded and the fluorescence in the FITC channel (488 nm/530/30) was measured. The data was fit using log (agonist) vs response in GraphPad Prism Software.

T6 sequence (P08637 17-208 limits assumed): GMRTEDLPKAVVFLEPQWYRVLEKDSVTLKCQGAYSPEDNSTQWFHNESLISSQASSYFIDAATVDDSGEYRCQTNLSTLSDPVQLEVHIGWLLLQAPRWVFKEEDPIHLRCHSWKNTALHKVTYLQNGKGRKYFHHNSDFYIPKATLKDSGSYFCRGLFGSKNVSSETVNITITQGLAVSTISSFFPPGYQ
T5 sequence (P12314 16-288 limits assumed): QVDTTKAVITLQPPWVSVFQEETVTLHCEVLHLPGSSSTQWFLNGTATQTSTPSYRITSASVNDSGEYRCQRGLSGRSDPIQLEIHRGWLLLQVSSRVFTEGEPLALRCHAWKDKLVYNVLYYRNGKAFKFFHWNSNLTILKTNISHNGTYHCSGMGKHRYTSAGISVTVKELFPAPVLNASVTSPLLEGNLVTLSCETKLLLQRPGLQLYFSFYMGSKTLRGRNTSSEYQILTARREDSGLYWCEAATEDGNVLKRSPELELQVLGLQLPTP
T2 sequence (Q9EP73 19-290 limits assumed): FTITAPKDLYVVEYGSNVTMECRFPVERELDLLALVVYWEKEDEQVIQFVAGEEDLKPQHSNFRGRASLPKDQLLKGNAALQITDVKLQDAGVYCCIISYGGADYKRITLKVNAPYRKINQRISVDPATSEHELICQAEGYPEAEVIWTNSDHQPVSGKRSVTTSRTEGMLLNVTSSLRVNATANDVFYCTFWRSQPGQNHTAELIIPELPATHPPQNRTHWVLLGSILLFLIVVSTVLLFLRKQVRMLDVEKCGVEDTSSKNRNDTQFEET

binding result [1]	EC50 [2] [nM]	EC50 [3] [nM]	binding response at end of association (RU) [4] [RU]	binding response at end of association (RU) [5] [RU]	binding response at end of association (RU) [6] [RU]	binding response at end of association (RU) [7] [RU]	EC50 [1] [nM]	EC50 [8] [nM]	Binder
no binding									control anti-human LAG-3 mAb 25F7 (antibody, human IgG1, kappa, L234A L235A, V domains shown, also called benchmark anti-human LAG-3 mAb) VH: QVQLQQWGAGLLKPSETLSLTCAVYGGSFSDYYWNWIRQPPGKGLEWIGEINHRGSTNSNPSLKSRVTLSLDTSKNQFSLKLRSVTAADTAVYYCAFGYSDYEYNWFDPWGQGTLVTVSS VL: EIVLTQSPATLSLSPGERATLSCRASQSISSYLAWYQQKPGQAPRLLIYDASNRATGIPARFSGSGSGTDFTLTISSLEPEDFAVYYCQQRSNWPLTFGQGTNLEIKR
	2.27	11.9							anti-mouse LAG-3/PD-L1 mAb2 FS18-7-108-29/S1 with LALA mutation (bispecific antibody, also called FS18-29/S1) heavy: not shown light: DIQMTQSPSSLSASVGDRVTITCRASQDVSTAVAWYQQKPGKAPKLLIYSASFLYSGVPSRFSGSGSGTDFTLTISSLQPEDFATYYCQQYLFTPPTFGQGTKVEIKRTVAAPSVFIFPPSDEQLKSGTASVVCLLNNFYPREAKVQWKVDNALQSGNSQESVTEQDSKDSTYSLSSTLTLSKADYEKHKVYACEVTHQGLSSPVTKSFNRGEC
			-8.5	-9.8	1.4	6.6	19	0.6	anti-human LAG-3/FITC mock mAb2 FS18-7-9/4420 comprising LALA mutation (bispecific antibody, human IgG1, kappa, L234A L235A, Human IgG1 format; also called FS18-7-9/4420LALA; FS18-7-09/4420LALA) heavy: EVKLDETGGGLVQPGRPMKLSCVASGFTFSDYWMNWVRQSPEKGLEWVAQIRNKPYNYETYYSDSVKGRFTISRDDSKSSVYLQMNNLRVEDMGIYYCTGSYYGMDYWGQGTSVTVSSASTKGPSVFPLAPSSKSTSGGTAALGCLVKDYFPEPVTVSWNSGALTSGVHTFPAVLQSSGLYSLSSVVTVPSSSLGTQTYICNVNHKPSNTKVDKKVEPKSCDKTHTCPPCPAPEAAGGPSVFLFPPKPKDTLMISRTPEVTCVVVDVSHEDPEVKFNWYVDGVEVHNAKTKPREEQYNSTYRVVSVLTVLHQDWLNGKEYKCKVSNKALPAPIEKTISKAKGQPREPQVYTLPPSWDEPWGEDVSLTCLVKGFYPSDIAVEWESNGQPENNYKTTPPVLDSDGSFFLYSKLTVPYDRWVWPDEFSCSVMHEALHNHYTQKSLSLSPG light: DVVMTQTPLSLPVSLGDQASISCRSSQSLVHSNGNTYLRWYLQKPGQSPKVLIYKVSNRFSGVPDRFSGSGSGTDFTLKISRVEAEDLGVYFCSQSTHVPWTFGGGTKLEIKRTVAAPSVFIFPPSDEQLKSGTASVVCLLNNFYPREAKVQWKVDNALQSGNSQESVTEQDSKDSTYSLSSTLTLSKADYEKHKVYACEVTHQGLSSPVTKSFNRGEC
			-8.5	-10	-0.9	0.7		0.5	anti-human LAG-3/FITC mock mAb2 FS18-7-62/4420 comprising LALA mutation (bispecific antibody, human IgG1, kappa, L234A L235A, also called FS18-7-62/4420LALA; FS18-7-62 in mock mAb2 format) heavy: EVKLDETGGGLVQPGRPMKLSCVASGFTFSDYWMNWVRQSPEKGLEWVAQIRNKPYNYETYYSDSVKGRFTISRDDSKSSVYLQMNNLRVEDMGIYYCTGSYYGMDYWGQGTSVTVSSASTKGPSVFPLAPSSKSTSGGTAALGCLVKDYFPEPVTVSWNSGALTSGVHTFPAVLQSSGLYSLSSVVTVPSSSLGTQTYICNVNHKPSNTKVDKKVEPKSCDKTHTCPPCPAPEAAGGPSVFLFPPKPKDTLMISRTPEVTCVVVDVSHEDPEVKFNWYVDGVEVHNAKTKPREEQYNSTYRVVSVLTVLHQDWLNGKEYKCKVSNKALPAPIEKTISKAKGQPREPQVYTLPPSWDEPWGEDVSLTCLVKGFYPSDIAVEWESNGIPEWNYKTTPPVLDSDGSFFLYSKLTVPYDRWVWPDEFSCSVMHEALHNHYTQKSLSLSPG light: DVVMTQTPLSLPVSLGDQASISCRSSQSLVHSNGNTYLRWYLQKPGQSPKVLIYKVSNRFSGVPDRFSGSGSGTDFTLKISRVEAEDLGVYFCSQSTHVPWTFGGGTKLEIKRTVAAPSVFIFPPSDEQLKSGTASVVCLLNNFYPREAKVQWKVDNALQSGNSQESVTEQDSKDSTYSLSSTLTLSKADYEKHKVYACEVTHQGLSSPVTKSFNRGEC
